Laboratory results taken from US12312412 (dated 2025).

The binders below were run against MAGEB2 peptide … / HLA-A*02:01 / b2m (human) (assay: FACS).

| Binder | Kd [nM] |
| --- | --- |
| MA 09-H7 CC (T3S) (antibody, V domains shown) VH: QITLKESGPALVKPTQTLTLTCTFSGFSFTTHKMGVDWIRQPPGKCLEWLALIYWNDDKRYSPSLQSRLTITKDTSKNQVVLTMTNMDPVDTATYYCAYRRYNWNYENWFDPWGQGTLVTVSS VL: DIQMTQSPSSLSASVGDRVTITCQASQDISNYLNWYQQKPGKAPKLLIYAASSLQSGVPSRFSGSGSGTDFTLTISSLQPEDFATYYCQQSYFPVVEFGCGTKVEIK | 0.8 |
| MA 86-A4-N-F5 CC (M4H) (antibody, V domains shown) VH: QVQLVESGGGVVQPGRSLRLSCAASGFTFSTYGMHWVRQAPGKCLEWVAVISYDAETVKYAESVKGRFTISRDNSKNTLYLQMNSLRAEDTAVYYCARGQLLTGYWGQGTLVTVSS VL: DIQMTQSPSSLSASVGDRVTITCRASQGISNYLAWYQQKPGKVPKLLIYAASTLQSGVPSRFSGSGSGTDFTLTISSLQPEDVATYYCQKYNSAPFTFGCGTKVEIK | 51.8 |
| MA 10-D3 CC (O6B) (antibody, V domains shown) VH: EVQLVESGGGLVQPGGSLRLSCAASGFTFSNAWMSWVRQAPGKCLEWVGRITSSRYGGTTDYAAPVKGRFTISRDDSKNTLFLQMNSLKTEDTAVYYCTTPSYSGSYYNYFSVMDVWGQGTTVTVSS VL: DIQMTQSPSSLSASVGDRVTITCRTSQSISSYLNWYQQKPGRAPKLLIFAASSLQGGVPSRFSGSGSGTDFTLTISSLQPEDFATYYCQQTYSMPFTFGCGTKVDIK | 1.1 |
| MA 10-G2 CC (T1S) (antibody, V domains shown) VH: EVQLVESGGGLVQPGGSLRLSCAASGFTFSNAWMSWVRQAPGKCLEWVGRILSMHYGGTTDYAAPVKGRFTISRDDSKNTLYLQMNSLKTEDTAVYYCTTPSYSGSYYNYFSVMDVWGQGTTVTVSS VL: DIQMTQSPSSLSASVGDRVTITCRTSQSISSYLNWFQQKPGKAPKLLIFAASSLQSGVPSRFSGSGSGTDFTLTISSLQPEDFATYYCQQTYSMPFTFGCGTKVDIK | 1 |
| MA 03-G11_AS CC (O4R) (antibody, V domains shown) VH: EVQLLESGGGLVKPGGSLRLSCAASGFTFSSHAMSWVRQAPGKCLEWVSAISGSGGGTYYAASVKGRFTISRDNSKNTLYLQMNSLRAEDTAVYYCATGKGVHLNFDYWGQGTLVTVSS VL: SYVLTQPPSVSVAPGQTARITCGGNNIGSKSVHWYQQKPGQAPVLVVYDDNDRPSGIPERFSGSNFGNTATLIISRVEAGDEADYYCQVWDYLLPGQVFGCGTKLTVL | 1.3 |
| MA 03-D12_AS CC (L6A) (antibody, V domains shown) VH: EVQLLESGGGLVQPGGSLRLSCAASGFTFSSHAMSWVRQAPGKCLEWVSAISGSGGGTYYAASVKARFTISRDNSKNTLYLQMNSLRAEDTAVYYCATGKGVHLGFDYWGQGTLVTVSS VL: SYVLTQPPSVSVAPGQTARITCGGNNIGSKSVHWYQQKPGQAPVMVVYDDNDRPSGIPERFSGSNSGNTATLTISRVEAGDEADYYCQVWDYLRQQQVFGCGTKLTVL | 0.7 |
| MA 03-E11 AS CC (G2B) (antibody, V domains shown) VH: EVQLLESGGGLVQPGGSLRLSCAASGFTFSSHAMSWVRQAPGKCLEWVSAISGSGGGTYNAASVKGRFTISRDNSKNTLYLQMNSLRAEDTAAYYCVTGKGVHLGFDYWGQGTLVTVSS VL: SYVLTQPPSVSVAPGQTARITCGGNNIGSKSVHWYQQKPGQAPVMVVYDDNDRPSGIPERFSGSNSGNTATLTISRVEAGDEADYYCQVWDYYSNRAVFGCGTKLTVL | 4.2 |

The remaining lines, values ahead:

| Kd [nM] | Binder |
| --- | --- |
| 35.5 | MA 86-A4 CC (K2W) (antibody, V domains shown) VH: QVQLVESGGGVVQPGRSLRLSCAASGFTFSTYGMHWVRQAPGKCLEWVAVISYDASNKYYAESVKGRFTISRDNSKNTLYLQMNSLRAEDTAVYYCARGQLLTGYWGQGTLVTVSS VL: DIQMTQSPSSLSASVGDRVTITCRASQGISNYLAWYQQKPGKVPKLLIYAASTLQSGVPSRFSGSGSGTDFTLTISSLQPEDFATYYCQKYNSAPFTFGCGTKVEIK |
| 0.7 | MA 10-D6 CC (V6Z) (antibody, V domains shown) VH: EVQLVESGGGLVKPGGSLRLSCAASGFTFSNAWMSWVRQAPGKCLEWVGRILNNAYGGTTDYAAPVKGRFTISRDDSKNTLYLQMNSLKTEDTAVYYCTTPSYSGSYYNYFSVMDVWGQGTTVTVSS VL: DIQMTQSPSSLSASVGDRVTITCRTSQSISSYLNWYQQKPGRAPKLLIFAASSLQGGVPSRFSGSGSGTDFTLTISSLQPEDFATYYCQQTYSMPFTFGCGTKVDIK |
| 0.7 | MA 10-H3 CC (M9L) (antibody, V domains shown) VH: EVQLVESGGGLVQPGGSLRLSCAASGFTFSNAWMSWVRQAPGKCLEWVGRIRSRPYGGTTDYAAPVKGRFTISRDDSKNTLYLQMNSLKTEDTAVYYCTTPSYSGSYYNYFSVMDVWGQGTTVTVSS VL: DIQMTQSPSSLSASVGDRVTITCRTSQSISSYLNWYQQKPGRAPKLLIFAASSLQGGVPSRFSGSGSGTDFTLTISSLQPEDFATYYCQQTYSSPFTFGCGTKLEIK |
| 0.5 | MA 03-E7_AS CC (L6M) (antibody, V domains shown) VH: EVQLLESGGGVVQPGRSLRLSCAASGFTFSSHAMSWVRQAPGKCLEWVSAISGSGGGTYYAASGKGRFTISRDNSKNTLYLQMNSLRAEDTAAYYCVTGKGVHLGFDYWGQGTLVTVSS VL: SYVLTQPPSVSVAPGQTARITCGGNNIGSKSVHWYQQKPGQAPVMVVYDDNDRPSGIPERFSGSNSGNTATLTISRVEAGDEADYYCQVWDYNMNVWVFGCGTKLTVL |
| 1.1 | MA 03-H12_AS CC (K5A) (antibody, V domains shown) VH: EVQLLESGGGLVQPGGSLRLSCAASGFTFSSHAMSWVRQAPGKCLEWVSAISGSGGGTYNAASVKGRFTISRDNSKNTLYLQMNSLRAEDTAAYYCVTGKGVHLGFDYWGQGTLVTVSS VL: SYVLTQPPSVSVAPGQTARITCGGNNIGSKSVHWYQQKPGQAPVMVVYDDNDRPSGIPERFSGSNFGNTATLTISRVEAGDEADYYCQVWDYVTPRWVFGCGTKLTVL |
| 1.5 | MA 03-C7_AS CC (G2H) (antibody, V domains shown) VH: EVQLLESGGGLVQPGGSLRLSCAASGFTFSSHAMSWVRQAPGKCLEWVSAISGSGGGTYYAASVKGRFTISRDNSKNTLYLQMNSLRAEDTAVYYCATGKGVHLGFDYWGQGTLVTVSS VL: SYVLTQPPSVSVAPGQTARITCGGNNIGSKSVHWYQQKPGQAPVMVVYDDNDRPSGIPERFSGSNSGNTATLTISRVEAGDEADYYCQVWDYERPAMVFGCGTKLTVL |
